We go through one molecule from patent publication US20230064326A1, “OPTOGENETIC COMPOSITIONS COMPRISING A CBh PROMOTER SEQUENCE AND METHODS FOR USE” (Vedere Bio II, Inc., priority 2021, published 2023).

The subject of this data set is NHP retinas. Kind of data set: SNAP immunostaining to visualize SNAP-mGluR2 expression in NHP retinas. It is filed as in vivo, Cynomolgus macaques and African Green monkeys. Particulars: non-human primates; central and peripheral retina.

B1: CBh promoter: promoter of SEQ ID NO: 1: CMV enhancer, chicken beta actin promoter and hybrid intron; in b245 driving SNAP-mGluR2 (nucleic acid)
DNA: CGTTACATAACTTACGGTAAATGGCCCGCCTGGCTGACCGCCCAACGACCCCCGCCCATTGACGTCAATAATGACGTATGTTCCCATAGTAACGCCAATAGGGACTTTCCATTGACGTCAATGGGTGGAGTATTTACGGTAAACTGCCCACTTGGCAGTACATCAAGTGTATCATATGCCAAGTACGCCCCCTATTGACGTCAATGACGGTAAATGGCCCGCCTGGCATTATGCCCAGTACATGACCTTATGGGACTTTCCTACTTGGCAGTACATCTACGTATTAGTCATCGCTATTACCATGGTCGAGGTGAGCCCCACGTTCTGCTTCACTCTCCCCATCTCCCCCCCCTCCCCACCCCCAATTTTGTATTTATTTATTTTTTAATTATTTTGTGCAGCGATGGGGGCGGGGGGGGGGGGGGGGCGCGCGCCAGGCGGGGCGGGGCGGGGCGAGGGGCGGGGCGGGGCGAGGCGGAGAGGTGCGGCGGCAGCCAATCAGAGCGGCGCGCTCCGAAAGTTTCCTTTTATGGCGAGGCGGCGGCGGCGGCGGCCCTATAAAAAGCGAAGCGCGCGGCGGGCGGGAGTCGCTGCGACGCTGCCTTCGCCCCGTGCCCCGCTCCGCCGCCGCCTCGCGCCGCCCGCCCCGGCTCTGACTGACCGCGTTACTCCCACAGGTGAGCGGGCGGGACGGCCCTTCTCCTCCGGGCTGTAATTAGCTGAGCAAGAGGTAAGGGTTTAAGGGATGGTTGGTTGGTGGGGTATTAATGTTTAATTACCTGGAGCACCTGCCTGAAATCACTTTTTTTCAG
modifications: misc_feature 1..812 CBH promoter sequence
notes: in b245 driving SNAP-mGluR2
Consider B1, for which the “expression of a SNAP-mGluR2 transgene, promoter comparison (CBh vs synapsin)” value is “much more robust expression”.
